Variants at the floor of the assay were thinned out.
Legend:
[1] = system: biotinyl-Phe-oxazolone; experiment: self-aminoacylation, catalytic enhancement (BFO) (fold over background); higher = more active; k-Seq, kA / k0A0; sequences stand for … in GGGAAUGGAUCCACAUCUACGAAUUC…UUCACUGCAGACUUGACGAAGCUG
Summary of the method: (§1)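 Each biotinyl-aminoacyl-oxazolone, at 2–1250 μM, was incubated with mutagenized RNA pools (0.43 μM) carrying a 21-nt variable region. The 50 μL reactions contained HEPES/NaCl/KCl/MgCl2/CaCl2 buffer with 5% acetonitrile at pH 6.9–7.0 and ran for 90 minutes at room temperature. After streptavidin capture, RNA was measured by qPCR in triplicate and by Illumina sequencing, and catalytic enhancement was calculated as median kA over the uncatalyzed rate from a pseudo-first-order fit of per-sequence fraction reacted.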

[2] = system: biotinyl-Ile-oxazolone; experiment: self-aminoacylation, catalytic enhancement (BIO) (fold over background); higher = more active; k-Seq, kA / k0A0; sequences stand for … in GGGAAUGGAUCCACAUCUACGAAUUC…UUCACUGCAGACUUGACGAAGCUG
Summary of the method: as §1

[3] = system: biotinyl-Met-oxazolone; experiment: self-aminoacylation, catalytic enhancement (BMO) (fold over background); higher = more active; k-Seq, kA / k0A0; sequences stand for … in GGGAAUGGAUCCACAUCUACGAAUUC…UUCACUGCAGACUUGACGAAGCUG
Summary of the method: as §1

[4] = system: biotinyl-Val-oxazolone; experiment: self-aminoacylation, catalytic enhancement (BVO) (fold over background); higher = more active; k-Seq, kA / k0A0; sequences stand for … in GGGAAUGGAUCCACAUCUACGAAUUC…UUCACUGCAGACUUGACGAAGCUG
Summary of the method: as §1

[5] = system: biotinyl-Leu-oxazolone; experiment: self-aminoacylation, catalytic enhancement (BLO) (fold over background); higher = more active; k-Seq, kA / k0A0; sequences stand for … in GGGAAUGGAUCCACAUCUACGAAUUC…UUCACUGCAGACUUGACGAAGCUG
Summary of the method: as §1

[6] = system: biotinyl-Trp-oxazolone; experiment: self-aminoacylation, catalytic enhancement (BWO) (fold over background); higher = more active; k-Seq, kA / k0A0; sequences stand for … in GGGAAUGGAUCCACAUCUACGAAUUC…UUCACUGCAGACUUGACGAAGCUG
Summary of the method: as §1

| Sequence | self-aminoacylation [1] | self-aminoacylation [2] | self-aminoacylation [3] | self-aminoacylation [4] | self-aminoacylation [5] | self-aminoacylation [6] |
| --- | --- | --- | --- | --- | --- | --- |
| CCACACUUCAAGCAGGCGGUC [Fam1B.1 aminoacylation ribozyme variant] | 0.771 | 1.86 | 1.24 | 1.54 | 1.07 | 1.77 |
| CCACACUUCAAGCAUUCAGUC [Fam1B.1 aminoacylation ribozyme variant] | 1.03 | 0.878 | 0.505 | 0.758 | 0.576 | 0.562 |
| CCACACUUCAAGCCAUCGGCC [Fam1B.1 aminoacylation ribozyme variant] | 5.27 | 2.98 | 3.33 | 5 | 2.85 | 4.97 |
| CCACACUUCAAGCCAUCGUUC [Fam1B.1 aminoacylation ribozyme variant] | 0.848 | 1.08 | 1.03 | 1.35 | 1.24 | 0.897 |
| CCACACUUCAAGCGACCGGUC [Fam1B.1 aminoacylation ribozyme variant] | 0.483 | 1.22 | 1.11 | 1.52 | 1.33 | 1.63 |
| CCACACUUCAAGCGAGCGGUC [Fam1B.1 aminoacylation ribozyme variant] | 0.929 | 0.983 | 0.603 | 1.11 | 0.93 | 0.744 |
| CCACACUUCAAGCGAUCGCUC [Fam1B.1 aminoacylation ribozyme variant] | 4.68 | 2.62 | 1.85 | 2.03 | 2.28 | 2.83 |
| CCACACUUCAAGCGAUCGGGC [Fam1B.1 aminoacylation ribozyme variant] | 1.07 | 2.4 | 2.65 | 2.89 | 1.64 | 3.13 |
| CCACACUUCAAGCGAUCGGUA [Fam1B.1 aminoacylation ribozyme variant] | 1.73 | 1.22 | 1.48 | 2.2 | 1.58 | 0.843 |
| CCACACUUCAAGCGAUCGGUU [Fam1B.1 aminoacylation ribozyme variant] | 3.6 | 1.77 | 1.48 | 2.08 | 1.53 | 1.77 |
| CCACACUUCAAGCUAUCGGCC [Fam1B.1 aminoacylation ribozyme variant] | 0.862 | 1.62 | 1.7 | 1.51 | 1.82 | 1.81 |
| CCACACUUCAAGCUAUCGGGC [Fam1B.1 aminoacylation ribozyme variant] | 1.57 | 1.67 | 1.46 | 1.76 | 1.45 | 2.2 |
| CCACACUUCAAGCUAUGGGUC [Fam1B.1 aminoacylation ribozyme variant] | 0.774 | 0.966 | 0.875 | 0.911 | 0.763 | 0.724 |
| CCACACUUCAAGGAAGCGGUC [Fam1B.1 aminoacylation ribozyme variant] | 0.364 | 0.986 | 1.06 | 1.28 | 1.13 | 0.619 |
| CCACACUUCAAGGAAUCGGGC [Fam1B.1 aminoacylation ribozyme variant] | 1.44 | 2.98 | 3.01 | 2.85 | 2.86 | 3.41 |
| CCACACUUCAAGGAAUCGGUG [Fam1B.1 aminoacylation ribozyme variant] | 52.1 | 4.9 | 7.21 | 4.61 | 10.5 | 6.57 |
| CCACACUUCAAGGAAUCGGUU [Fam1B.1 aminoacylation ribozyme variant] | 0.969 | 1.34 | 1.39 | 1.57 | 1.43 | 1.16 |
| CCACACUUCAAGGAAUCUGUC [Fam1B.1 aminoacylation ribozyme variant] | 0.473 | 0.384 | 0.442 | 0.446 | 0.318 | 0.287 |
| CCACACUUCAAGUAAUCGGUG [Fam1B.1 aminoacylation ribozyme variant] | 33.4 | 3.28 | 4.68 | 2.98 | 6.33 | 4.68 |
| CCACACUUCAAGUACUCGGUC [Fam1B.1 aminoacylation ribozyme variant] | 0.703 | 1.17 | 1.06 | 1.09 | 0.875 | 0.789 |
| CCACACUUCAAGUAUUCGGUC [Fam1B.1 aminoacylation ribozyme variant] | 0.932 | 1.63 | 1.42 | 1.64 | 1.39 | 1.52 |
| CCACACUUCAAUCAAGCGGUC [Fam1B.1 aminoacylation ribozyme variant] | 0.972 | 0.709 | 0.634 | 0.811 | 0.694 | 0.769 |
| CCACACUUCAAUCAAUCCGUC [Fam1B.1 aminoacylation ribozyme variant] | 0.663 | 0.655 | 0.641 | 0.823 | 0.61 | 0.611 |
| CCACACUUCAAUCAAUUGGUC [Fam1B.1 aminoacylation ribozyme variant] | 0.876 | 0.598 | 0.527 | 0.616 | 0.545 | 0.719 |
| CCACACUUCAAUCAGUCGGUC [Fam1B.1 aminoacylation ribozyme variant] | 0.869 | 0.963 | 0.815 | 0.796 | 0.723 | 0.687 |

Reference: the supplement of paper PMC9233669
